Measurements as given in PMC12406269 (2025).
Values belong to the binder of their own block, whether it stands above or below them.

Legend:
human ISG15 (C78S) [1] = biological target: T1, human ISG15 (C78S) (human, UniProt P05161 1-157, C78S); test: BLI
human ISG15 (C78S) [2] = biological target: T1, human ISG15 (C78S); test: BLI; remark: listed apart in the source

T1 sequence (P05161 1-157 C78S): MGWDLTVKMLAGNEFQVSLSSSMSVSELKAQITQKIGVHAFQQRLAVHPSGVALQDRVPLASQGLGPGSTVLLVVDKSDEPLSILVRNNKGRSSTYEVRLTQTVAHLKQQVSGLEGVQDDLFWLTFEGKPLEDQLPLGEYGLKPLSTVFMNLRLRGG

koff (human ISG15 (C78S) [1]): 0.00388 s⁻¹
Kd (human ISG15 (C78S) [2]): 2.88 nM
B1: C-terminally biotin-tagged VHH_(ISG15-B) (VHH)
VHH: QVQLVETGGGLVEPGGSLRLSCTVSGINFSSQFMAWFRQGPGKQREWVAIDAGEENVGYLDLVEGRFTISRDTARNTLYLQMNSLKPEDTAVYYCNIFPVLPDSRWGQGTQVTVSS
modifications: biotin at the C-terminus (sortase reaction with GGG-Biotin replaces the C-terminal HA tag)

koff (human ISG15 (C78S) [1]): 0.012 s⁻¹
Kd (human ISG15 (C78S) [2]): 101 nM
B2: C-terminally biotin-tagged VHH_(ISG15-A) (VHH)
VHH: QLQLVETGGGLVQAGGSLRLSCAASGRTFAGLSVKWFRQPPGAEREWVAHITSTGSSTHYADSVKGRFTISRDYDRNMVYLQMSSLKPEDTAVYYCHASTLWPEKHQDYWGQGIQVTVSS
modifications: biotin at the C-terminus (sortase reaction with GGG-Biotin replaces the C-terminal HA tag)
